Measurements from paper PMC11561763.

Biological target: glutathione S-transferase fusion from pGEX-6P1 possessing a C-terminal optimized tetracysteine motif (GST-TC12)
Assay: SEC; Superdex 75 Increase 10/300, 50 mM Tris pH 7.5, 150 mM NaCl; quenched one-pot ligation mixtures (Ub or SUMO, SrtCrAsH, eSrtA, GST-TC12); peaks collected and analysed by ESI-MS

Chain of glutathione S-transferase fusion from pGEX-6P1 possessing a C-terminal optimized tetracysteine motif (GST-TC12) (P08515 2-218): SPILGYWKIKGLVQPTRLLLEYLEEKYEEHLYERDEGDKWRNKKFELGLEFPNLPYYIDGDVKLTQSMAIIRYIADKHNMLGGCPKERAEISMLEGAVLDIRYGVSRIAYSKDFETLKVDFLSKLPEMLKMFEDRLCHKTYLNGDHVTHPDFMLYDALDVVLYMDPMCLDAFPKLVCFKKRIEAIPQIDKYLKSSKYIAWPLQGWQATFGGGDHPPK

- stoichiometry N: 2
Substance: glutathione S-transferase fusion from pGEX-6P1 possessing a C-terminal optimized tetracysteine motif (GST-TC12) (natural protein)
